Reference: the Immune Epitope Database (IEDB)

Target: HLA-A*02:01
Experiment: IEDB peptide-MHC binding, purified MHC/direct/fluorescence; filed as Kd, often an IC50 or EC50 that approximates it; ≥ and ≤ were set here for values at or beyond the usual limits of such assays
Conditions: source organism: Mycobacterium tuberculosis H37Rv

Row | Sequence | Kd [nM]
1 | YLLADTFTV | ≤ 1
2 | KLQERLAKL | 18
3 | ALLGGLRPV | ≤ 1
4 | GMFANRWII | 27
5 | YLPDPTVGV | ≤ 1
6 | SLRNWIATL | 66
7 | ALDEGLLPV | ≤ 1
8 | SLWKDGAPL | 5
9 | WLYPGAQNL | ≤ 1
10 | AIYDTMQYV | ≤ 1
11 | YVYPDNLPV | 2
12 | SLIDLLHKI | ≤ 1
13 | LLYDGSFAV | ≤ 1
14 | HLDDVGFLV | ≤ 1
15 | AMAGSIDLL | 4
